From patent US11441131B2, “Heparosan synthases and use thereof for saccharide synthesis” (The Regents of the University of California, priority 2019, dated 2022)
Where a chain is given by its changes, count along the chain named. Names and notes keep the numbering of the source. Like-named read-outs stand apart in the source and are kept apart here.

B1: D222N (protein)
chain: MGSSHHHHHHSFEKIYTYNQALEAKLEKDKQTTSITDLYNEVAKSDLGLVKETNSANPLVSIIMTSHNTAQFIEASINSLLLQTYKNIEIIIVDDDSSDNTFEIASRIANTTSKVRVFRLNSNLGTYFAKNTGILKSKGDIIFFQDSDDVCHHERIERCVNILLANKETIAVRCAYSRLAPETQHIIKVNNMDYRLGFITLGMHRKVFQEIGFFNCTTKGSNDEFFHRIAKYYGKEKIKNLLLPLYYNTMRENSLFTDMVEWIDNHNIIQKMSDTRQHYATLFQAMHNETASHDFKNLFQFPRIYDALPVPQEMSKLSNPKIPVYINICSIPSRIAQLQRIIGILKNQCDHFHIYLDGYVEIPDFIKNLGNKATVVHCKDKDNSIRDNGKFILLEELIEKNQDGYYITCDDDIIYPSDYINTMIKKLNEYDDKAVIGLHGILFPSRMTKYFSADRLVYSFYKPLEKDKAVNVLGTGTVSFRVSLFNQFSLSDFTHSGMADIYFSLLCKKNNILQICISRPANWLTEDNRDSETLYHQYRDNDEQQTQLIMENGPWGYSSIYPLVKNHPKFTDLIPCLPFYFL
B2: I199A (protein)
chain: B1 chain with I199A, N222D
B3: R195A (protein)
chain: B1 chain with R195A, N222D
B4: Y176A (protein)
chain: B1 chain with Y176A, N222D
B5: D500N (protein)
chain: B1 chain with N222D, D500N
B6: L196A (protein)
chain: B1 chain with L196A, N222D
B7: T475A (protein)
chain: B1 chain with N222D, T475A
B8: T477A (protein)
chain: B1 chain with N222D, T477A
B9: T200A (protein)
chain: B1 chain with T200A, N222D

Tests used:
His6-PmHS2 = assay: Donor substrate specificity of GlcNAcT activity (HPLC), His6-PmHS2; type: biochemical, Pasteurella multocida; details: acceptor GlcAβ2AA
Source text: (§1) Donor substrate specificity assays. […] Chromatographic separation and detection were achieved similarly to that described above for kinetics studies.

His6-Δ80PmHS2 = assay: Donor substrate specificity of GlcNAcT activity (HPLC), His6-Δ80PmHS2; type: biochemical, Pasteurella multocida; details: acceptor GlcAβ2AA
Source text: as §1

[1] = α1-4-GlcNAcT activity comparison of His6-Δ80PmHS2 and its D222N and D500N mutants; type: biochemical
Protocol: Reactions were stopped by heating reaction mixture at 70° C. for 10 min, followed by incubation on ice for 30 min and centrifugation at 11,337 g for 15 min. Supernatants were analyzed similarly to that described above for […].

[2] = β1-4-GlcAT activity comparison of His6-Δ80PmHS2 and its D222N and D500N mutants; type: biochemical
Protocol: Reactions were stopped by heating reaction mixtures at 70° C. for 10 min, followed by incubation on ice for 30 min and centrifugation at 11,337 g for 15 min. Supernatants were analyzed similarly to that described above for the coupled-enzyme reverse glycosylation assay.

[3] = Reverse glycosylation assay mimicking synthetic conditions; type: biochemical; details: 30 mM UDP, conditions mimicking synthetic reactions
Protocol: Reactions were stopped by heating reaction mixtures at 70° C. for 10 min, followed by incubation on ice for 30 min and centrifugation at 11,337 g for 15 min. Supernatants were analyzed similarly to that described above for time-course reverse glycosylation assays.

[4] = Protein expression and purification; design: species or system E. coli BL21 (DE3); details: per L culture
Protocol: Protein expression and purification. The plasmid-bearing E. coli BL21(DE3) cells were cultured in 1 L of LB-rich media (10 g/L tryptone, 5 g/L yeast extract and 10 g/L NaCl) supplemented with ampicillin (100 μg/mL). Expression of the target protein was achieved by inducing the E. coli culture with 0.1 mM of isopropyl-1-thio-β-D-galactopyranoside (IPTG) when OD600 nm reached 0.8-1.0, followed by incubating at 20° C. for 20 h with shaking at 250 rpm in a C25KC incubator shaker (New Brunswick Scientific, Edison, N.J.). Histidine-tagged target proteins were purified from cell lysate. To obtain the cell lysate, cell pellet harvested by centrifugation at 2,795 g for 50 min was resuspended (25 mL/L cell culture) in lysis buffer (Tris-HCl, 100 mM, pH 8.0 with 0.1% Triton X-100). Sonication protocol was 2 s (sonication)/3 s (rest) for a total of 6 min on ice. Lysed cells were centrifuged at 5,000 g for 50 min and the supernatant (lysate) was collected. Purification of histidine-tagged proteins from the lysate was achieved using a Ni′-resin column. The column was pre-equilibrated with 10 column volumes of binding buffer (5 mM imidazole, 0.5 M NaCl, 50 mM Tris-HCl, pH 7.5). The lysate was then loaded, and the column was washed with 10 column volumes of binding buffer and 10 column volumes of washing buffer (16 mM imidazole, 0.5 M NaCl, 50 mM Tris-HCl, pH 7.5). The target protein was eluted with Tris-HCl buffer (50 mM, pH 7.5) containing imidazole (200 mM) and NaCl (0.5 M). The fractions containing the purified enzymes were collected, and stored at 4° C.

[5] = β1-4GlcA-transferase activity of designed mutants; type: biochemical
[6] = α1-4GlcNAc-transferase activity of designed mutants; type: biochemical

Row | Molecule | suitability as donor substrate (His6-PmHS2) | suitability as donor substrate (His6-Δ80PmHS2) | β1-4GlcA-transferase activity [5] | also measured
1 | CC(=O)NC1C(OP(=O)(O)OP(=O)(O)OCC2OC(n3ccc(=O)[nH]c3=O)C(O)C2O)OC(COS(=O)(=O)O)C(O)C1O (stereo not drawn) [UDP-GlcNAc6S] | not suitable donor substrates | not suitable donor substrates | – | –
2 | [N-]=[N+]=NC1C(OP(=O)(O)OP(=O)(O)OCC2OC(n3ccc(=O)[nH]c3=O)C(O)C2O)OC(CO)C(O)C1O (stereo not drawn) [UDP-GlcN3] | not suitable donor substrates | not suitable donor substrates | – | –
3 | CC(=O)NC1C(OP(=O)(O)OP(=O)(O)OCC2OC(n3ccc(=O)[nH]c3=O)C(O)C2O)OC(CN=[N+]=[N-])C(O)C1O (stereo not drawn) [UDP-GlcNAc6N3] | suitable donor substrates | suitable donor substrates | – | –
4 | O=C(N[C@H]1[C@@H](OP(=O)(O)OP(=O)(O)OC[C@H]2O[C@@H](n3ccc(=O)[nH]c3=O)[C@H](O)[C@@H]2O)O[C@H](CO)[C@@H](O)[C@@H]1O)C(F)(F)F [UDP-GlcNTFA] | suitable donor substrates | suitable donor substrates | – | –
5 | O=c1ccn([C@@H]2O[C@H](COP(=O)(O)OP(=O)(O)O[C@H]3O[C@H](CO)[C@@H](O)[C@H](O)[C@H]3NS(=O)(=O)O)[C@@H](O)[C@H]2O)c(=O)[nH]1 [UDP-GlcNS] | not suitable donor substrates | not suitable donor substrates | – | –
6 | [N-]=[N+]=NCC(=O)N[C@H]1[C@@H](OP(=O)(O)OP(=O)(O)OC[C@H]2O[C@@H](n3ccc(=O)[nH]c3=O)[C@H](O)[C@@H]2O)O[C@H](CO)[C@@H](O)[C@@H]1O [UDP-GlcNAz] | suitable donor substrates | suitable donor substrates | – | –
7 | UDP-GlcNAc6NAcPh | not suitable donor substrates | not suitable donor substrates | – | –
8 | B1 | – | – | – | α1-4-GlcNAcT activity relative to His6-Δ80PmHS2 [1]: retained; β1-4-GlcAT activity relative to His6-Δ80PmHS2 [2]: lost; β1-4-GlcAT activity relative to His6-Δ80PmHS2 ([2]; listed as D291N): completely removed; reverse glycosylation oligosaccharide products [3]: no reverse glycosylation oligosaccharide products were observed; expression level [4]: 50 to 60 mg/L
9 | B2 | – | – | retained | –
10 | B3 | – | – | retained | –
11 | B4 | – | – | retained | –
12 | B5 | – | – | – | decrease of α1-4-GlcNAcT activity relative to His6-Δ80PmHS2 [1]: 548 fold; β1-4-GlcAT activity relative to His6-Δ80PmHS2 [2]: retained; reverse glycosylation oligosaccharide products [3]: no reverse glycosylation oligosaccharide products were observed; expression level [4]: 60 to 70 mg/L
13 | B6 | – | – | retained | –
14 | B7 | – | – | – | α1-4GlcNAc-transferase activity [6]: retained
15 | B8 | – | – | – | α1-4GlcNAc-transferase activity [6]: retained
16 | B9 | – | – | retained | –
